# Reference: paper PMC9684555, “Structure- and computational-aided engineering of an oxidase to produce isoeugenol from a lignin-derived compound” (Nature Communications, 2022)
# B1: EUGO (eugenol oxidase) (Rhodococcus jostii RHA1) (protein)
# chain: MTRTLPPGVSDERFDAALQRFRDVVGDKWVLSTADELEAFRDPYPVGAAEANLPSAVVSPESTEQVQDIVRIANEYGIPLSPVSTGKNNGYGGAAPRLSGSVIVKTGERMNRILEVNEKYGYALLEPGVTYFDLYEYLQSHDSGLMLDCPDLGWGSVVGNTLDRGVGYTPYGDHFMWQTGLEVVLPQGEVMRTGMGALPGSDAWQLFPYGFGPFPDGMFTQSNLGIVTKMGIALMQRPPASQSFLITFDKEEDLEQIVDIMLPLRINMAPLQNVPVLRNIFMDAAAVSKRTEWFDGDGPMPAEAIERMKKDLDLGFWNFYGTLYGPPPLIEMYYGMIKEAFGKIPGARFFTHEERDDRGGHVLQDRHKINNGIPSLDELQLLDWVPNGGHIGFSPVSAPDGREAMKQFEMVRNRANEYNKDYAAQFIIGLREMHHVCLFIYDTAIPEAREEILQMTKVLVREAAEAGYGEYRTHNALMDDVMATFNWGDGALLKFHEKIKDALDPNGIIAPGKSGIWSQRFRGQNL
# notes: full length, 526 residues, C-terminal His6 tag (pBAD-EUGO-His6x), E. coli NEB10beta; covalent FAD; homodimer; mutants for crystals from His-SUMO fusion, tag cleaved
# Experiments:
# [1] = substrate: CCCc1ccc(O)c(OC)c1; assay: purified protein; assay type: biochemical, Rhodococcus jostii; conditions: 50 mM KPi pH 7.5, 10% v/v DMSO, 10 µM to 1 mM substrate, O2 co-substrate, 1.0 µM enzyme
# [2] = substrate: COc1cc(CO)ccc1O; assay: purified protein; assay type: biochemical, Rhodococcus jostii; conditions: 50 mM KPi pH 7.5, O2 co-substrate, 0.05 µM enzyme
protein,measurement,setting,value
B1,Km,[1],3.3 ± 0.9 µM
same,kcat,[1],0.008 ± 0.0003 s⁻¹
same,Km,[2],43.0 ± 2.2 µM
same,kcat,[2],6.8 ± 0.2 s⁻¹
